The target in one test is T1, ASK2(1-172) (Arabidopsis thaliana, UniProt Q9FHW7).
T1 construct: the plasmid pGAD424-ASK2(1-172)[4] was constructed by inserting a BamHI/PstI fragment of pGTE-ASK2(1-172) into pGAD424; expressed in transfected cells; host or cells: Saccharomyces cerevisiae HF7c
T1 sequence (Q9FHW7 1-171): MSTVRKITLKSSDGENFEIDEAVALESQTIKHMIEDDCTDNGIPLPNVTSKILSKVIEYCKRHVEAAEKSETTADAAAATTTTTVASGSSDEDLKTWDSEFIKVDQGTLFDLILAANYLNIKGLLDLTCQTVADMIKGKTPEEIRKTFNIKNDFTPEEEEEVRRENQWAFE
The experiment in a line: Yeast two-hybrid assay with ASK2. Particulars: HF7c yeast. Format: cell-based. An excerpt: As expression vectors of expressing GAL4 DNA binding domain (GAL4-BD) and ORE9 fusion protein, plasmids pGBT9-ORE9 (1-49) and pGBT9-ORE9 (50-693) were constructed. The plasmid pGBT9-ORE9 expresses a fragment of ORE9 containing N-terminal 1-49th amino acids corresponding to an F-box region of ORE9, and the plasmid pGBT9-ORE9 (50-693) expresses a fragment of ORE9 containing 50-693th amino acids from which the F-box region was removed.
First, the gene encoding the ORE9 (1-49) fragment was amplified by PCR using a primer represented by SEQ ID NO: 10 and SEQ ID NO: 11, and then inserted into BamHI and PstI restriction enzyme sites of pGBT9 (Clontech, USA) containing a 4-BD gene and a tryptophan auxotrophic selection marker gene (TRP1), thereby constructing the plasmid pGBT9-ORE9 (1-49). Similarly, the plasmid pGBT 9-ORE9 (50-693) was constructed, which expresses an ORE9 (50-693) fragment and a GAL4-BD fusion protein. In this case, oligonucletides represented by SEQ ID NO: 12 and SEQ ID NO: 13 were used as PCR primers to amplify the gene encoding the ORE9 (50-693) fragment. […]

In another test the target is T2, GST-ASK1 fusion protein (Arabidopsis thaliana, UniProt Q39255).
T2 construct: made in house; host or cells: Escherichia coli BL21(DE3) pLysS
T2 sequence (Q39255 1-160): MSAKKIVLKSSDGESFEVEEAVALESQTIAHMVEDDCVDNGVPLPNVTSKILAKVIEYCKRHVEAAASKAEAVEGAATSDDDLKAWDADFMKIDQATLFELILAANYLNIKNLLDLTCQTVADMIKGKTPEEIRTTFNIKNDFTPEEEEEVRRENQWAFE
The experiment in a line: In vitro binding assay with GST-ASK1 fusion protein. To be noted: 35S-labeled in vitro translation product; glutathione beads; GST as negative control. The text has this:
In order to examine that ORE9 protein or derivatives thereof directly bind with ASK1, a GST-ASK1 fusion protein and a ^35S-labeled ORE9 protein produced by in vitro translation were subjected to in vitro binding assay. To obtain a glutathione S-transferase (GST) protein and a GST-ASK1 fusion protein, a vector pGEX (APBiotech, Co.) and a vector pGEX-ASK1 were constructed, which express the above proteins, respectively. Artificial sequences represented by SEQ ID NO: 14 and SEQ ID NO: 15 were used as PCR primers to amplify a gene encoding the ASK1 fragment. The resulting PCR product was digested with EcoRI and NcoI restriction enzymes, and inserted into the restriction enzyme sites of the pGEX vector. Escherichia coli BL21(DE3) pLysS was transformed with the resulting two vectors, and GST and GST-ASK1 fusion proteins were expressed. The GST and GST-ASK1 fusion proteins were purified by chromatography with glutathione-Sepharose 4B beads. The purified proteins was subjected to electrophoresis with SDS-polyacryamide gets, dyed with Coomassie blue, and measured for their amount. GST and GST-ASK1 fusion proteins of the same amount were added to glutathione beads, which had been previously washed with 10-fold volume of B buffer (20 mM […], pH 7.6, 150 mM sodium chloride, 10% glycerol, 0.5% NP-40, 1 mM DTT) three times. Then, the resulting proteins were adsorbed 4° C. for one hour using a rotating mixer. The provided beads were washed with 1 ml B buffer three times, and then stored in a state where the ratio of slurries relative to B buffer is 50%.
Meanwhile, a radioactivity-labeled ORE9 (1-693), the mutant type ore9 and ORE9 derivatives (1-327 and 50-693) were prepared using the in vitro transcription/translation system (Promega, USA) and [^35S]-methionine (DuPont NEN, USA). The proteins were quantitatively analyzed with SDS-PAGE and BAS radioanalytic imaging system (Japan). Then, the respective ^35S-labeled translation products of the same amount were mixed with 60 μl GST-adsorbed beads or GST-ASK1 fusion protein-absorbed beads, contained in 1 ml GB buffer (final concentration: 20 mM Tris-HCl, pH 7.5, 0.15% NP-40, 150 mM NaCl, 1 mM EDTA). The resulting beads were cultured in a rotating mixer at 4° C. for two hours, and then washed with 1 ml GB buffer four times. The washed beads were added with 30 μl of 2×SDS sample solutions, boiled for three minutes and then isolated with SDS-PAGE. The resulting gels were dried to dryness, and then exposed to X-ray film.

B1: ore9: mutant protein with early translation termination, 8 LRRs, SEQ ID NO: 3 (protein, listed as Arabidopsis thaliana)
chain: MASTTLSDLPDVILSTISSLVSDSRARNSLSLVSHKFLALERSTRSHLTIRGNARDLSLVPDCFRSISHLDLSFLSPWGHTLLASLPIDHQNLLALRLKFCFPFVESLNVYTRSPSSLELLLPQWPRIRHIKLLRWHQRASQIPTGGDFVPIFEHCGGFLESLDLSNFYHWTEDLPPVLLRYADVAARLTRLDLLTASFTEGYKSSEIVSITKSCPNLKTFRVACTFDPRYFEFVGDETLSAVATSSPKLTLLHMVDTASLANPRAIPGTEAGDSAVTAGTLIEVFSGLPNLEELVLDVGKDVKHSGVALEALNSKCKKLRVLKLG
As for B1, the “binding with ASK2 in yeast two-hybrid assay” value with ASK2(1-172) was “didn't bind to each other”. The “binding (co-precipitation) with GST-ASK1” value with GST-ASK1 fusion protein is “co-precipitated with the GST-ASK1 fusion protein”.

Values taken from US20040123344A1, “Novel gene encoding an f-box protein which regulates leaf longevity in arabidopsis thaliana and mutant gene thereof” (priority 2000, published 2004).
